Test results published in patent publication US20240209029A1, “ADIPONECTIN GLYCOPEPTIDES AND COMPOSITIONS AND METHODS OF USE THEREOF” (The University of Hong Kong, priority 2021, published 2024).

Tested on: MDA-MB-231 cells
Experiment: Cancer cell proliferative assay (anti-proliferative activity, manual cell counting)
Assay type: cell-based, human
Description: FIGS. 3A-3B are bar graphs showing the Emax (FIG. 3A) and EC50 (FIG. 3B) of adiponectin or peptides with no glycans (hAdn-WM), or mono-, di-, tri- and tetra-glycans. The glyACD and adiponectin elicit synergistic anti-proliferative activity in human MDA-MB-231 cells. After serum starvation for 24 hours, MDA-MB-231 cells were treated with different concentrations of hAdn-WM, glyACD, full-length human adiponectin, or their combinations. After incubation for another 24 hours, cells were harvested for manual counting. FIG. 3C is a graph showing the inhibition rate on MDA-MB-231 cells of the indicated peptides. MDA-MB-231 cells were treated with different concentrations of adiponectin in the absence or presence of low (2.5 μg/ml) or high (20 μg/ml) doses of hAdn-WM or hAdn-WM656877101. FIG. 3D is a heatmap showing the percentage inhibition on cell growth. MDA-MB-231 cells were treated with 0, 0.22, 0.33, 0.49, 0.74, 1.11, 1.67, 2.5 μg/ml adiponectin in combination with 0, 0.3125, 0.625, 1.25, 2.5, 5, 10, 20 μg/ml hAdn-WM or hAdn-WM656877101. The percentage inhibition on cell growth was calculated and indicated by different intensity of the blue color. Data are presented as mean±SEM (n=6). *, P<0.05 vs full-length human adiponectin; ♦, P<0.05 vs peptide with no glycans (hAdn-WM); ▴, P<0.05 vs peptide with tetra-glycans (hAdn-WM656877101).
MDA-MB-231 cells were cultured in DMEM supplemented with 10% FBS and 1% penicillin-streptomycin-fungisone at 37° C. and under 5% CO2 95% humidified air. After harvesting, cells were seeded at a density of 3000 cells per well in 96-well plates and then cultured for 24 hours. After fasting in DMEM with 0.5% FBS for 24 hours, cells were subsequently stimulated with 2.5% FBS in the presence of peptides, human adiponectin or other drugs. The viable cell numbers at 24 hours at different doses were manually counted by mixing with trypan blue dye for analysis. The maximum inhibition rate (Emax) and half maximal effective concentration (EC50) were used to evaluate the anti-tumor activity of peptides and adiponectin. […]

[1] = 24 hours incubation, viable cells manually counted

EC50 [1]: 0.33 ± 0.11 µg/mL
B1: hAdiponectin: full-length human adiponectin, circulating glycoprotein hormone of 244 amino acids (SEQ ID NO:1) (protein, listed as Homo sapiens)
chain: MLLLGAVLLLLALPGHDQETTTQGPGVLLPLPKGACTGWMAGIPGHPGHNGAPGRDGRDGTPGEKGEKGDPGLIGPKGDIGETGVPGAEGPRGFPGIQGRKGEPGEGAYVYRSAFSVGLETYVTIPNMPIRFTKIFYNQQNHYDGSTGKFHCNIPGLYYFAYHITVYMKDVKVSLFKKDKAMLFTYDQYQENNVDQASGSVLLHLEVGDQVWLQVYGEGERNGLYADNDNDSTFTGFLLYHDTN
Emax (%) maximum inhibition rate [1]: 69.3 ± 3.34%
Emax of human adiponectin (adiponectin alone (absence of peptide), FIG. 3C): 66.7±4.29%
